# From paper PMC7979930
# Key:
# [1] = target: CBF3core, dephosphorylated (Cep3 dimer, Ctf13, Skp1) (budding yeast) (UniProt P40969+P35203+P52286); test: EMSA; settings: 1 mM DTT, 60 min on ice, 530 nM nucleosome, 106-1166 nM CBF3/CBF3core, 4% PAGE 0.2x TBE 4 C, EtBr stain, Hill fit
# [2] = target: CBF3, dephosphorylated (CBF3core + Ndc10 NTD) (budding yeast) (UniProt P40969+P35203+P52286+P32504); test: EMSA; settings: Ndc10 dissociates, main text says CEN3 nucleosome, Methods CEN3-601, EMSA: 10 mM Tris pH 7.4, 75 mM NaCl, 1 mM DTT, 60 min on ice, 530 nM nucleosome, 106-1166 nM CBF3/CBF3core, 4% PAGE 0.2x TBE 4 C, EtBr stain, Hill fit
# [3] = target: CEN3 CENP-A^Cse4_∆L1 nucleosome with H2B_5mut (budding yeast | yeast) (UniProt P36012); test: native gel or EMSA; CBF3/CBF3core with CEN3 nucleosomes, room temperature 60 min; native agarose gels in 0.2 x TBE, SYBR Green I stain, bands quantified
# [4] = target: CEN3 CENP-A^Cse4_∆L1 nucleosome (budding yeast | yeast) (UniProt P36012); test: as above
# [5] = target: CEN3 CENP-A^Cse4 nucleosome (budding yeast | yeast) (UniProt P36012); test: as above
# [6] = target: CEN3 CENP-A^Cse4 nucleosome with H2B_5mut (budding yeast | yeast) (UniProt P36012); test: as above
# [7] = Fig. 3c legend says CEN3, Supp. Fig. 4f says CEN3-601, EMSA: 10 mM Tris pH 7.4, 75 mM NaCl
substance,measurement,setting,value
ATCGAGAATCCCGGTGCCGAGGCCGCTCAATTGGTCGTAGACAGCTCTAGCACCGCTTAAACGCACGTACGCGCTGTCCCCCGCGTTTTAATATTAGTGTATTTGATTTCCGAAAGTTAAAAAAGAAATAGTAAGAAATCATCCGAT (double strand) [CEN3-601 Cse4 nucleosome],Kd,"[1]; NucCse4/H2B, Fig. 3c legend says CEN3, Supp. Fig. 4f and Methods say CEN3-601, EMSA: 10 mM Tris pH 7.4, 75 mM NaCl",320 nM
same,Kd,[2],550 nM
ATCGAGAATCCCGGTGCCGAGGCCGCTCAATTGGTCGTAGACAGCTCTAGCACCGCTTAAACGCACGTACGCGCTGTCCCCCGCGTTTTAATATTAGTGTATTTGATTTCCGAAAGTTAAAAAAGAAATAGTAAGAAATCATCCGAT (double strand) [CEN3-601 Cse4_deltaL1/H2B_5mut nucleosome],Kd,[1]; [7],680 nM
ATCGAGAATCCCGGTGCCGAGGCCGCTCAATTGGTCGTAGACAGCTCTAGCACCGCTTAAACGCACGTACGCGCTGTCCCCCGCGTTTTAATATTAGTGTATTTGATTTCCGAAAGTTAAAAAAGAAATAGTAAGAAATCATCCGAT (double strand) [CEN3-601 Cse4_deltaL1 nucleosome],Kd,[1]; [7],360 nM
ATCGAGAATCCCGGTGCCGAGGCCGCTCAATTGGTCGTAGACAGCTCTAGCACCGCTTAAACGCACGTACGCGCTGTCCCCCGCGTTTTAATATTAGTGTATTTGATTTCCGAAAGTTAAAAAAGAAATAGTAAGAAATCATCCGAT (double strand) [CEN3-601 Cse4/H2B_5mut nucleosome],Kd,[1]; [7],350 nM
dephosphorylated CBF3core (from UniProt P40969 1-608; P52286 1-194; P35203 1-478) (complex),Kd,[3],680 nM
same,Kd,[4],360 nM
same,Kd,[5],320 nM
same,Kd,[6],350 nM
